Laboratory results from PMC8809517, “Cofactor-independent RNA editing by a synthetic S-type PPR protein”.
Numbering of substitutions follows the chain as printed.

Key:
Assay in all cases: high-throughput RNA pulldown from lysate on Ni-NTA beads; HRP: 50 mM Tris pH 8, 150 mM NaCl, 1 mM beta-mercaptoethanol, 50 ug/ml BSA, 3 ug/ml yeast RNA, 0.5% heparin; ITC and FP: Tris pH 8, 200 mM KCl, 5% glycerol; MST: 50 mM Tris pH 8, 200 mM NaCl, 1 mM DTT, BSA, heparin, 0.05% Tween 20
Conditions in all cases: tags: N-terminal His-eGFP
[1] = target: T1, GFP-9S library array, motif 4 ND N98T;D124R (synthetic construct, N98T;D124R)
T1 chain: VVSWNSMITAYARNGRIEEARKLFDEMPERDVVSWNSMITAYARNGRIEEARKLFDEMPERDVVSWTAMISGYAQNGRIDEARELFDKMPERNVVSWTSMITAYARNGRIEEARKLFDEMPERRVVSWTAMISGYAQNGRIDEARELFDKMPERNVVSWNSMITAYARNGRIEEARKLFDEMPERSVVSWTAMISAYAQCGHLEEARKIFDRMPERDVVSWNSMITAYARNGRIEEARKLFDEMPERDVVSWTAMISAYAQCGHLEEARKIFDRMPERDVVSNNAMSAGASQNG

[2] = target: T2, GFP-9S library array, motif 4 ND N98S;D124M (synthetic construct, N98S;D124M)
T2 chain: T1 chain with T98S, R124M

[3] = target: T3, GFP-9S library array, motif 4 ND N98S;D124I (synthetic construct, N98S;D124I)
T3 chain: T1 chain with T98S, R124I

[4] = target: T4, GFP-9S library array, motif 4 ND N98E;D124T (synthetic construct, N98E;D124T)
T4 chain: T1 chain with T98E, R124T

[5] = target: T5, GFP-9S library array, motif 4 ND N98K;D124I (synthetic construct, N98K;D124I)
T5 chain: T1 chain with T98K, R124I

AUUAUACGUGA (ssRNA) [IR-rpoA-U]
Kd ([1]; label: 5' IRDye 800CW): 133 nM | Kd ([2]; label: 5' IRDye 800CW): 160 nM | Kd ([3]; label: 5' IRDye 800CW): 152 nM | Kd ([4]; label: 5' IRDye 800CW): 476 nM | Kd ([5]; label: 5' IRDye 800CW): 252 nM

AUUAAACGUGA (ssRNA) [IR-rpoA-A]
Kd ([1]; label: 5' IRDye 800CW): 80.8 nM | Kd ([2]; label: 5' IRDye 800CW): 369 nM | Kd ([3]; label: 5' IRDye 800CW): 113 nM | Kd ([4]; label: 5' IRDye 800CW): 339 nM | Kd ([5]; label: 5' IRDye 800CW): 560 nM

AUUAGACGUGA (ssRNA) [Cy5-rpoA-G]
Kd ([1]; label: 5' Cy5): 120 nM | Kd ([2]; label: 5' Cy5): 183 nM | Kd ([3]; label: 5' Cy5): 71.4 nM | Kd ([4]; label: 5' Cy5): 123 nM | Kd ([5]; label: 5' Cy5): 167 nM

AUUACACGUGA (ssRNA) [Cy5-rpoA]
Kd ([1]; label: 5' Cy5): 132 nM | Kd ([2]; label: 5' Cy5): 120 nM | Kd ([3]; label: 5' Cy5): 74.7 nM | Kd ([4]; label: 5' Cy5): 130 nM | Kd ([5]; label: 5' Cy5): 130 nM
